In article PMC11417369, “DNA sequence and chromatin differentiate sequence-specific transcription factor binding in the human malaria parasite Plasmodium falciparum”:

T1: AP2-LT D1 (Plasmodium falciparum, UniProt Q8IAM1 2520-2577)
T1 sequence: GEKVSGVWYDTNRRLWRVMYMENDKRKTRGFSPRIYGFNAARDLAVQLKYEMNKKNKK


What follows are binders tested against T1, AP2-LT D1 (assay: gcPBM; about 25 ug protein; PBS, 1% milk, 0.2 mg/ml BSA, salmon testes DNA, 0.03% Triton X-100). Settings: tags: N-terminal GST (pGEX-4T-1), kept; label: surface-attached array probe.

| Binder | binding signal |
| --- | --- |
| CACACA_site6577 (dsDNA) DNA 1: AGCAACCCCCTAGCTACACACATATAGATATAAATA DNA 2: TATTTATATCTATATGTGTGTAGCTAGGGGGTTGCT | 9.99 ln median PBM intensity, better of two orientations |
| CACACA_site7437 (dsDNA) DNA 1: AGATAAAAAAAGTACACACACACATATATTTATATA DNA 2: TATATAAATATATGTGTGTGTGTACTTTTTTTATCT | 9.98 ln median PBM intensity, better of two orientations |
| CACACA_site2459 (dsDNA) DNA 1: ACCTAAGAACTATTTACACACATATACAAAATATAT DNA 2: ATATATTTTGTATATGTGTGTAAATAGTTCTTAGGT | 9.34 ln median PBM intensity, better of two orientations |
| CACACA_site2004 (dsDNA) DNA 1: AAAATGTGCCCACGCGTACACACAAAAAAAGAAAAA DNA 2: TTTTTCTTTTTTTGTGTGTACGCGTGGGCACATTTT | 9.36 ln median PBM intensity, better of two orientations |
| CACACA_site699 (dsDNA) DNA 1: ATTTATATATAATATACACACATATAATCCACATAT DNA 2: ATATGTGGATTATATGTGTGTATATTATATATAAAT | 9.4 ln median PBM intensity, better of two orientations |
| CACACA_site1192 (dsDNA) DNA 1: AAAAATACCTTATATATACACACTATGTTTTTCTTT DNA 2: AAAGAAAAACATAGTGTGTATATATAAGGTATTTTT | 9.31 ln median PBM intensity, better of two orientations |
| CACACA_site5592 (dsDNA) DNA 1: AATATAAACAAACACACACACATATATATATATATT DNA 2: AATATATATATATATGTGTGTGTGTTTGTTTATATT | 9.96 ln median PBM intensity, better of two orientations |
| CACACA_site8242 (dsDNA) DNA 1: AATTTACACGTACGTGTACACACAAAAATATGTTTT DNA 2: AAAACATATTTTTGTGTGTACACGTACGTGTAAATT | 9.37 ln median PBM intensity, better of two orientations |
| CACACA_site1961 (dsDNA) DNA 1: ATTTTTTAACATATCATACACACAACCACTTTTTAT DNA 2: ATAAAAAGTGGTTGTGTGTATGATATGTTAAAAAAT | 9.38 ln median PBM intensity, better of two orientations |
| CACACA_site8541 (dsDNA) DNA 1: AAGTACATACATAAAACACACACATATATATATATA DNA 2: TATATATATATATGTGTGTGTTTTATGTATGTACTT | 9.93 ln median PBM intensity, better of two orientations |
| CACACA_site126 (dsDNA) DNA 1: ACGATATTTTTGGTGACACACATATATATATATATA DNA 2: TATATATATATATATGTGTGTCACCAAAAATATCGT | 9.9 ln median PBM intensity, better of two orientations |
| CACACA_site5015 (dsDNA) DNA 1: ACCTCATAATATTTAACACACAAAATTATCTGTATG DNA 2: CATACAGATAATTTTGTGTGTTAAATATTATGAGGT | 9.39 ln median PBM intensity, better of two orientations |
| CACACA_site4472 (dsDNA) DNA 1: TTTGAATCCTTATATACACACATTATATAATATTAT DNA 2: ATAATATTATATAATGTGTGTATATAAGGATTCAAA | 9.33 ln median PBM intensity, better of two orientations |
| CACACA_site6367 (dsDNA) DNA 1: AATATCTTAGTGGATACACACATATAAATGTGTATT DNA 2: AATACACATTTATATGTGTGTATCCACTAAGATATT | 9.32 ln median PBM intensity, better of two orientations |
| CACACA_site8822 (dsDNA) DNA 1: ATTATGCACCAACACACACACACACTCCTAAAAAAT DNA 2: ATTTTTTAGGAGTGTGTGTGTGTGTTGGTGCATAAT | 9.97 ln median PBM intensity, better of two orientations |
| CACACA_site5583 (dsDNA) DNA 1: ATTAAATACATTAACACACACACAAATAAATACATA DNA 2: TATGTATTTATTTGTGTGTGTGTTAATGTATTTAAT | 9.88 ln median PBM intensity, better of two orientations |
| CACACA_site262 (dsDNA) DNA 1: ATTATGTATACATAAACACACATATATATAAAAAAA DNA 2: TTTTTTTATATATATGTGTGTTTATGTATACATAAT | 9.35 ln median PBM intensity, better of two orientations |
| CACACA_site7896 (dsDNA) DNA 1: TATACATACATACATACACACACACCGATATATATA DNA 2: TATATATATCGGTGTGTGTGTATGTATGTATGTATA | 9.94 ln median PBM intensity, better of two orientations |
